Data taken from publication PMC4917396.
“And” between values parts separate entries of the source, which are not always exact repeats. Identical values can stand only once.

Tests used:
[1] = molecular target: recombinant full-length murine amelogenin with an uncleavable N-terminal histidine tag (rp(H)M180) (mouse); assay: in situ AFM coverage with Hill fit
[2] = molecular target: recombinant full-length murine amelogenin with an uncleavable N-terminal histidine tag (rp(H)M180) (mouse); assay: in situ AFM with volume analysis of adsorbates
[3] = molecular target: recombinant full-length murine amelogenin without tag (rpM179) (mouse); assay: in situ AFM with volume analysis of adsorbates
[4] = molecular target: recombinant full-length murine amelogenin without tag (rpM179) (mouse); assay: in situ AFM coverage with Hill fit
[5] = molecular target: recombinant full-length murine amelogenin without tag (rpM179) (mouse); assay: DLS
[6] = molecular target: recombinant full-length murine amelogenin without tag (rpM179) (mouse); assay: in situ AFM with volume analysis of adsorbates; remark: listed apart in the source
[7] = molecular target: recombinant full-length murine amelogenin without tag (rpM179) (mouse); assay: in situ AFM with volume analysis of adsorbates; remark: listed apart in the source

| ln Ka [1] | stoichiometry N [2] | stoichiometry N [3] | ln Ka [4] | stoichiometry N [5] | stoichiometry N [6] | stoichiometry N [7] | Substance |
| --- | --- | --- | --- | --- | --- | --- | --- |
| 76.2 Ka in M^-n | 25 monomers |  |  |  |  |  | recombinant full-length murine amelogenin with an uncleavable N-terminal histidine tag (rp(H)M180) (natural protein) |
|  |  | 150 monomers | 3.35 Ka in M^-n | 200 monomers | 25 monomers | 100 monomers and 200 monomers | recombinant full-length murine amelogenin without tag (rpM179) (natural protein) |
